Reference: patent publication US20250011397A1 (HOSPITAL FOR SICK CHILDREN, published 2025)
Where a chain is given by its changes, count along the chain named. “And” between values parts separate entries of the source, which are not always exact repeats. Equal entries are not always repeated.

B1: mAb 368 (antibody, V domains shown)
VH: QVQLVQSGAEVKKPGSSVKVSCKASGYTFTSYDINWVRQAPGQGLEWMGAIMPMFGTANYAQKFQGRVTITADESTSTAYMELSSLRSEDTAVYYCARGSSGYYYGWGQGTLVTVSS
VL: not shown
B2: MB 108 (other)
heavy: QVQLVQSGAEVKKPGASVKVSCKASGYIFSRYAIHWVRQAPGQGLEWMGWMNPISGNTDYAPNFQGRVTMTRDTSTSTVYMELSSLRSEDTAVYYCAKDGSQLAYLVEYFQHWGQGTLVTVSSASTKGPSVFPLAPSSKSTSGGTAALGCLVKDYFPEPVTVSWNSGALTSGVHTFPAVLQSSGLYSLSSVVTVPSSSLGTQTYICNVNHKPSNTKVDKKVEPKSC
light: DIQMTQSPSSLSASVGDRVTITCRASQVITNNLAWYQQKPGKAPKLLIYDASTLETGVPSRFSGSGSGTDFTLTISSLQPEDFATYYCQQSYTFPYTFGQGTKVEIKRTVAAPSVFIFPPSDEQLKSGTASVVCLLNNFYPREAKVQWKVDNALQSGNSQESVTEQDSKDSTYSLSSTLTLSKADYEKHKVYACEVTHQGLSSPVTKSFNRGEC
B3: MB 158 (other)
heavy: QVQLVQSGAEVKKPGASVKVSCKASGYTFTGYYMHWVRQAPGQGLEWMGWINPLNGGTNFAPKFQGRVTMTRDTSTSTVYMELSSLRSEDTAVYYCARDPGGSYSNDAFDIWGQGTLVTVSSASTKGPSVFPLAPSSKSTSGGTAALGCLVKDYFPEPVTVSWNSGALTSGVHTFPAVLQSSGLYSLSSVVTVPSSSLGTQTYICNVNHKPSNTKVDKKVEPKSC
light: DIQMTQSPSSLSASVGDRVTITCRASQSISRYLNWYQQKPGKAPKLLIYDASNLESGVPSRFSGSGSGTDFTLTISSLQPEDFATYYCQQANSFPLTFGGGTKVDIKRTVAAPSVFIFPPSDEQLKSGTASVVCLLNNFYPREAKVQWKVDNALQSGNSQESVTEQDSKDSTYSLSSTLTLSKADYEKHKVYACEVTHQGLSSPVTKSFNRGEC
B4: MB 178 (other)
heavy: QVQLVQSGAEVKKPGASVKVSCKASGYTFTDYHMHWVRQAPGQGLEWMGWINPNSGGTNYAQKFQGRVTMTRDTSTSTVYMELSSLRSEDTAVYYCARDISSWYEITKFDPWGQGTLVTVSSASTKGPSVFPLAPSSKSTSGGTAALGCLVKDYFPEPVTVSWNSGALTSGVHTFPAVLQSSGLYSLSSVVTVPSSSLGTQTYICNVNHKPSNTKVDKKVEPKSC
light: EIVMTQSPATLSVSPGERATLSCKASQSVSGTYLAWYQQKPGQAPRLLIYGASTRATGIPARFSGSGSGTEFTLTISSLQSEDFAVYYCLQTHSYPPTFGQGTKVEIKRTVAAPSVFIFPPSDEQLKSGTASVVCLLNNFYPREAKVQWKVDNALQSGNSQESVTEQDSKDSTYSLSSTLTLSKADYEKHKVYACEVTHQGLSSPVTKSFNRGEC
B5: mAb 349 (antibody, V domains shown)
VH: EVQLLESGGGLVQPGGSLRLSCAASGFTFSNYGMHWVRQAPGKGLEWVSGISSAGSITNYADSVKGRFTISRDNSKNTLYLQMNSLRAEDTAVYYCAGNHAGTTVTSEYFQHWGQGTLVTVSS
VL: DIQMTQSPSSLSASVGDRVTITCRASQSISSWLAWYQQKPGKAPKLLIYDTSNLETGVPSRFSGSGSGTDFTLTISSLQPEDFATYYCQQSYTTPWTFGQGTRLEIKR
notes: also called IgG 349
B6: mAb 108 (antibody, V domains shown)
VH: QVQLVQSGAEVKKPGASVKVSCKASGYIFSRYAIHWVRQAPGQGLEWMGWMNPISGNTDYAPNFQGRVTMTRDTSTSTVYMELSSLRSEDTAVYYCAKDGSQLAYLVEYFQHWGQGTLVTVSS
VL: B5 VL with S28V, S30T, S31N, W32N, T51A, N53T, T94F, W96Y, R103K, L104V
B7: mAb 160 (antibody, V domains shown)
VH: QVQLVQSGAEVKKPGASVKVSCKASGYTFTGHDMHWVRQAPGQGLEWMGIINPSGGSTSYAQKFQGRVTMTRDTSTSTVYMELSSLRSEDTAVYYCARANSLRYYYGMDVWGQGTMVTVSS
VL: B5 VL with I29V, D50A, T51A, N53S, E55Q, T56S, S91G, W96Y, R103K
notes: also called IgG 160
B8: MB 160 (other)
heavy: QVQLVQSGAEVKKPGASVKVSCKASGYTFTGHDMHWVRQAPGQGLEWMGIINPSGGSTSYAQKFQGRVTMTRDTSTSTVYMELSSLRSEDTAVYYCARANSLRYYYGMDVWGQGTMVTVSSASTKGPSVFPLAPSSKSTSGGTAALGCLVKDYFPEPVTVSWNSGALTSGVHTFPAVLQSSGLYSLSSVVTVPSSSLGTQTYICNVNHKPSNTKVDKKVEPKSC
light: DIQMTQSPSSLSASVGDRVTITCRASQSVSSWLAWYQQKPGKAPKLLIYAASSLQSGVPSRFSGSGSGTDFTLTISSLQPEDFATYYCQQGYTTPYTFGQGTKLEIKRTVAAPSVFIFPPSDEQLKSGTASVVCLLNNFYPREAKVQWKVDNALQSGNSQESVTEQDSKDSTYSLSSTLTLSKADYEKHKVYACEVTHQGLSSPVTKSFNRGEC
B9: MB 349 (other)
heavy: EVQLLESGGGLVQPGGSLRLSCAASGFTFSNYGMHWVRQAPGKGLEWVSGISSAGSITNYADSVKGRFTISRDNSKNTLYLQMNSLRAEDTAVYYCAGNHAGTTVTSEYFQHWGQGTLVTVSSASTKGPSVFPLAPSSKSTSGGTAALGCLVKDYFPEPVTVSWNSGALTSGVHTFPAVLQSSGLYSLSSVVTVPSSSLGTQTYICNVNHKPSNTKVDKKVEPKSC
light: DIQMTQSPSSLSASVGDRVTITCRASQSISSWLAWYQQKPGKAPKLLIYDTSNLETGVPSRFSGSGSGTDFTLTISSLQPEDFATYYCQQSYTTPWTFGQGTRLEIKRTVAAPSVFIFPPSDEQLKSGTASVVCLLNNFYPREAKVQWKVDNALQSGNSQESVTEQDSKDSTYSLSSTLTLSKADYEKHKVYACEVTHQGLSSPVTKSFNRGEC
B10: MB 192 (other)
heavy: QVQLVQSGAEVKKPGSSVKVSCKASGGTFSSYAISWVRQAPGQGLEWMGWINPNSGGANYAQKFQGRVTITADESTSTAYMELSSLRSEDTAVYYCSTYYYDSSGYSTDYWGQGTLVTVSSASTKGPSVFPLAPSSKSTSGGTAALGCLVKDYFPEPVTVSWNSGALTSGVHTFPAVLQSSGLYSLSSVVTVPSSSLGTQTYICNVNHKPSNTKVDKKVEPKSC
light: DIVMTQSPLSLPVTPGEPASISCRSSQSLLHSNGYNYLDWYLQKPGQSPQLLIYAASSLQSGVPDRFSGSGSGTDFTLKISRVEAEDVGVYYCMQALQTPYTFGQGTKLEIKRTVAAPSVFIFPPSDEQLKSGTASVVCLLNNFYPREAKVQWKVDNALQSGNSQESVTEQDSKDSTYSLSSTLTLSKADYEKHKVYACEVTHQGLSSPVTKSFNRGEC
B11: MB 180 (other)
heavy: QVQLVQSGAEVKKPGSSVKVSCKASGYTFTSYAMHWVRQAPGQGLEWMGRISPRSGGTKYAQRFQGRVTITADESTSTAYMELSSLRSEDTAVYYCAREAVAGTHPQAGDFDLWGRGTLVTVSSASTKGPSVFPLAPSSKSTSGGTAALGCLVKDYFPEPVTVSWNSGALTSGVHTFPAVLQSSGLYSLSSVVTVPSSSLGTQTYICNVNHKPSNTKVDKKVEPKSC
light: B10 light with M94Q, A96Y, L97Y, Q98S, T99S
B12: MB 56 (other)
heavy: QVQLVQSGAEVKKPGASVKVSCKASGYTFTSYGISWVRQAPGQGLEWMGWISAYNGNTNYAQKLQGRVTMTRDTSTSTVYMELSSLRSEDTAVYYCARDIGPIDYWGQGTLVTVSSASTKGPSVFPLAPSSKSTSGGTAALGCLVKDYFPEPVTVSWNSGALTSGVHTFPAVLQSSGLYSLSSVVTVPSSSLGTQTYICNVNHKPSNTKVDKKVEPKSC
light: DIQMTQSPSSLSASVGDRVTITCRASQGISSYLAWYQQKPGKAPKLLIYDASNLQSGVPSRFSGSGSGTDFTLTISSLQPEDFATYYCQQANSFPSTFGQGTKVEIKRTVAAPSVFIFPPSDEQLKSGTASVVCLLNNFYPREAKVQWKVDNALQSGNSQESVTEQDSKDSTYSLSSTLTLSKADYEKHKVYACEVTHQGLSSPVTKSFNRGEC
B13: MB 128 (other)
heavy: QVQLVQSGAEVKKPGASVKVSCKASGYTFTHYYMHWVRQAPGQGLEWMGIINPSSSSASYSQKFQGRVTMTRDTSTSTVYMELSSLRSEDTAVYYCARDGRYGSGSYPFDYWGQGTLVTVSSASTKGPSVFPLAPSSKSTSGGTAALGCLVKDYFPEPVTVSWNSGALTSGVHTFPAVLQSSGLYSLSSVVTVPSSSLGTQTYICNVNHKPSNTKVDKKVEPKSC
light: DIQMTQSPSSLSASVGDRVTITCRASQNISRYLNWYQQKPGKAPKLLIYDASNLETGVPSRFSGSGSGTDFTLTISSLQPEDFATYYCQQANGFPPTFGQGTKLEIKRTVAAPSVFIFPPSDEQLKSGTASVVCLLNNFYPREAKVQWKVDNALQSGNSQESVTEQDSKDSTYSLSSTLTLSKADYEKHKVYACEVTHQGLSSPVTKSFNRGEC
B14: mAb 178 (antibody, V domains shown)
VH: QVQLVQSGAEVKKPGASVKVSCKASGYTFTDYHMHWVRQAPGQGLEWMGWINPNSGGTNYAQKFQGRVTMTRDTSTSTVYMELSSLRSEDTAVYYCARDISSWYEITKFDPWGQGTLVTVSS
VL: EIVMTQSPATLSVSPGERATLSCKASQSVSGTYLAWYQQKPGQAPRLLIYGASTRATGIPARFSGSGSGTEFTLTISSLQSEDFAVYYCLQTHSYPPTFGQGTKVEIKR
notes: also called IgG 178
B15: MB 254 (other)
heavy: EVQLLESGGGLVQPGGSLRLSCAASGFTFSSSAMHWVRQAPGKGLEWVSAIGTGGDTYYADSVKGRFTISRDNSKNTLYLQMNSLRAEDTAVYYCAREGDGYNFYFDYWGQGTLVTVSSASTKGPSVFPLAPSSKSTSGGTAALGCLVKDYFPEPVTVSWNSGALTSGVHTFPAVLQSSGLYSLSSVVTVPSSSLGTQTYICNVNHKPSNTKVDKKVEPKSC
light: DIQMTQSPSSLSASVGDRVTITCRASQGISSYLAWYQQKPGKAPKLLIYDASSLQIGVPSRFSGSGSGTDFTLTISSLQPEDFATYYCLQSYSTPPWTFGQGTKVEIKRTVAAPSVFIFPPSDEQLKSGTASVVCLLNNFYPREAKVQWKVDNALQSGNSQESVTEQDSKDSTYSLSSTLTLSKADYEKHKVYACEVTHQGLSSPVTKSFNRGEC
B16: mAb 128 (antibody, V domains shown)
VH: QVQLVQSGAEVKKPGASVKVSCKASGYTFTHYYMHWVRQAPGQGLEWMGIINPSSSSASYSQKFQGRVTMTRDTSTSTVYMELSSLRSEDTAVYYCARDGRYGSGSYPFDYWGQGTLVTVSS
VL: DIQMTQSPSSLSASVGDRVTITCRASQNISRYLNWYQQKPGKAPKLLIYDASNLETGVPSRFSGSGSGTDFTLTISSLQPEDFATYYCQQANGFPPTFGQGTKLEIKR
B17: mAb 56 (antibody, V domains shown)
VH: QVQLVQSGAEVKKPGASVKVSCKASGYTFTSYGISWVRQAPGQGLEWMGWISAYNGNTNYAQKLQGRVTMTRDTSTSTVYMELSSLRSEDTAVYYCARDIGPIDYWGQGTLVTVSS
VL: B16 VL with N28G, R31S, N34A, E55Q, T56S, G93S, P96S, L104V
notes: also called IgG 56
B18: MB 120 (other)
heavy: QVQLVQSGAEVKKPGASVKVSCKASGYTFTSYDINWVRQAPGQGLEWMGMIDPSGGSTSYAQKFQGRVTMTRDTSTSTVYMELSSLRSEDTAVYYCAKDFGGGTRYDYWYFDLWGRGTLVTVSSASTKGPSVFPLAPSSKSTSGGTAALGCLVKDYFPEPVTVSWNSGALTSGVHTFPAVLQSSGLYSLSSVVTVPSSSLGTQTYICNVNHKPSNTKVDKKVEPKSC
light: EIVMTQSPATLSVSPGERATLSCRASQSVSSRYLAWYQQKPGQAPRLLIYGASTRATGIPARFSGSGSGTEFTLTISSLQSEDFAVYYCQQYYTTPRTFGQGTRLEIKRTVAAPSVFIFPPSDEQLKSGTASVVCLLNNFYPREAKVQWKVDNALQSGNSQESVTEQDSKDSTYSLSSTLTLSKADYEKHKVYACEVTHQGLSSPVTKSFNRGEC

Each binder was assayed against T1, SARS-CoV-2 Spike on HIV-based pseudotyped virus (Spike plasmid BEI NR52310) (SARS-CoV-2, UniProt P0DTC2 14-1273) (assay: cell-based or functional assay).

| Binder | Median IC50 (PsV neutralization) |
| --- | --- |
| B1 | > 50 µg/mL and > 333 nM |
| B2 | 0.37 µg/mL and 161 pM |
| B3 | 0.1 µg/mL and 43 pM |
| B4 | 1.7 µg/mL and 0.74 nM |
| B5 | > 50 µg/mL and > 333 nM |
| B6 | > 50 µg/mL and > 333 nM |
| B7 | > 50 µg/mL and > 333 nM |
| B8 | 0.22 µg/mL and 96 pM |
| B9 | > 50 µg/mL and > 0.33 µM |
| B10 | 0.79 µg/mL and 343 pM |
| B11 | 0.89 µg/mL and 387 pM |
| B12 | > 50 µg/mL and > 0.33 µM |
| B13 | 1.5 nM and 3.5 µg/mL |
| B14 | > 50 µg/mL and > 333 nM |
| B15 | 9.3 µg/mL and 4 nM |
| B16 | > 50 µg/mL and > 333 nM |
| B17 | > 50 µg/mL and > 333 nM |
| B18 | 7.2 µg/mL and 3.1 nM |

Biological target: T1, SARS-CoV-2 Spike on HIV-based …
Test: cell-based or functional assay
Remark: another data set of the same source

| Binder | IC50 SARS-CoV2 PsV (µg/mL), IgG [µg/mL] | IC50 SARS-CoV2 PsV (µg/mL), MB [µg/mL] |
| --- | --- | --- |
| B1 | > 50 |  |
| B2 |  | 0.37 |
| B3 |  | 0.1 |
| B4 |  | 1.7 |
| B5 | > 50 |  |
| B6 | > 50 |  |
| B7 | > 50 |  |
| B8 |  | 0.22 |
| B9 |  | > 50 |
| B10 |  | 0.79 |
| B11 |  | 0.89 |
| B12 |  | > 50 |
| B13 |  | 3.5 |
| B14 | > 50 |  |
| B15 |  | 9.3 |
| B16 | > 50 |  |
| B17 | > 50 |  |
| B18 |  | 7.2 |
